Reference: patent publication US20250059241A1 (SYNGENTA CROP PROTECTION, published 2025)

Assays:
[1] = molecular target: SMALP-Sf-ABCC2-FLAG (Sf-ABCC2 extracted from silkworm pupae membranes with styrene maleic acid and affinity purified) (Spodoptera frugiperda); test: immuno-magnetic separation with SMALP-Sf-ABCC2 and anti-FLAG magnetic beads; colonies on LB-tet
[2] = molecular target: T1, Spore-Cry1Fa (Bacillus subtilis spores displaying the Bacillus thuringiensis Cry1Fa protein as a … (Bacillus thuringiensis, UniProt Q03746 1-615)); test: microscopy of spores on Sf9 cells expressing Sf-ABCC2
T1 construct: vector pSB634 or pHY300PLK
T1 sequence: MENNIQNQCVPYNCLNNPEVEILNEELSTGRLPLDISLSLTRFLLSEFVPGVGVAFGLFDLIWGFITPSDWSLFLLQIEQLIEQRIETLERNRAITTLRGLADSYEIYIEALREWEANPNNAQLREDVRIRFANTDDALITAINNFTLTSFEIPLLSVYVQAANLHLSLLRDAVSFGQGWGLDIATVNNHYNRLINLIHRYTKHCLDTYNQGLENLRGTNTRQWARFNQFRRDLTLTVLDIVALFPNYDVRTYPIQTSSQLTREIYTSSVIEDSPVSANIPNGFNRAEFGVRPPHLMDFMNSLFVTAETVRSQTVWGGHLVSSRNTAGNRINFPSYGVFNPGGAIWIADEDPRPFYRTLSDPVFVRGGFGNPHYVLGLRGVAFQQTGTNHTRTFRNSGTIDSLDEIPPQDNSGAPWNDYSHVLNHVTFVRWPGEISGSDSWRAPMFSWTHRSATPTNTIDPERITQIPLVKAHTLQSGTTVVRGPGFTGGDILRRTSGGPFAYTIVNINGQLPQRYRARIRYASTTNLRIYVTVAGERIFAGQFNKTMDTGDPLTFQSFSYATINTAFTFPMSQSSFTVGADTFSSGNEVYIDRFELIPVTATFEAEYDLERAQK

[3] = molecular target: T1, Spore-Cry1Fa (Bacillus subtilis spores …); test: immuno-magnetic separation with anti-FLAG magnetic beads
[4] = molecular target: T2, Spore-Cry1Aa (Bacillus subtilis spores displaying the Bacillus thuringiensis Cry1Aa protein as a … (Bacillus thuringiensis, UniProt P0A366 1-621)); test: flow cytometry of spores labelled with Bm-ABCC2, anti-FLAG mouse antibody and Alexa-labelled anti-mouse IgG, after a wash with 0.2% SDS
T2 construct: vector pSB634 or pHY300PLK

[5] = molecular target: T1, Spore-Cry1Fa (Bacillus subtilis spores …); test: bright field and fluorescence microscopy of spores mixed with Sf9 cells

Spore-pSB634 (Bacillus subtilis spores carrying the empty vector pSB634, no Cry protein displayed)
spores (colonies) pulled out by the magnetic beads from 10^6 spores (spores (colonies)) [1]: 9

B1: Sf-ABCC2 (Spodoptera frugiperda ABC transporter subfamily C type 2, C-terminal FLAG tag) expressed on Sf9 cells (receptor)
chain: MDKSNKNTAANGNGGQRAGEPKKRVRKKPNILSRIFVWWIFPVLITGNKRDVEEDDLIVPSKKFNSERQGEYFERYWFEEVAIAEREDRDPSLWKAMRRAYWLQYMPGAIFVLLISGLRTAQPLLFSQLLSYWSVDSEMSQQDAGLYALAMLGINFITMMCTHHNNLFVMRFSMKVKIAASSLLFRKLLRMSQVSVGDVAGGKLVNLLSNDVARFDYAFMFLHYLWVVPLQVGVVLYFVYDAAGWAPYVGLFGVIILIMPLQAGLTKLTGVVRRMTAKRTDKRIKLMSEIINGIQVIKMYAWEKPFQLVVKAARAYEMSALRKSIFIRSMFLGFMLFTERSVMFLTVLTLALTGNMISATLIYPIQQYFGIITMNVTLILPMAFASFSEMLISLERIQGFLLLDERSDIQITPKVVNGAGSKLFNNSKKEGGLETGIVLPTKYSPTEASIARPVQDEPNMADYPVQLNKVNATWADLNDNKEMTLKNISLRVRKNKLCAVIGPVGSGKTSLLQLLLRELPVTSGNLSISGTVSYASQEPWLFPATVRENILFGLEYNVAKYKEVCKVCSLLPDFKQFPYGDLSLVGERGVSLSGGQRARINLARAVYREADIYLLDDPLSAVDANVGRQLFDGCIKGYLSGKTCILVTHQIHYLKAADFIVVLNEGSVENMGSYDELMKTGTEFSMLLSDQASEGSDTDKKERPAMMQGISKMSVKSDDEEGEEKVQVLEAEERQSGSLKWDVLGRYMKSVNSWCMVVMAFLVLVITQGAATTTDYWLSFWTNQVDGYIQTLPEGESPNPELDTQVGLLTTGQYLIVHGSVVLAIIILTQVRILSFVVMTMRASENLHNTIYEKLIVAVMRFFDTNPSGRVLNRFSKDMGAMDELLPRSMLETVQMYLSLASVLVLNAIALPWTLIPTTVLMFIFVFLLKWYINAAQAVKRLEGTTKSPVFGMINSTISGLSTIRSSNSQDRLLNSFDDAQNLHTSAFYTFLGGSTAFGLYLDTLCLIYLGIIMSIFILGDFGELIPVGSVGLAVSQSMVLTMMLQMAAKFTADFLGQMTAVERVLEYTKLPTEENMETGPTTPPKGWPSAGEVTFSNVYLKYSPDDPPVLKDLNFAIKSGWKVGVVGRTGAGKSSLISALFRLSDITGSIKIDGLDTQGIAKKLLRSKISIIPQEPVLFSASLRYNLDPFDNYNDEDIWRALEQVELKESIPALDYKVSEGGTNFSMGQRQLVCLARAILRSNKILIMDEATANVDPQTDALIQKTIRKQFANCTVLTIAHRLNTIMDSDRVLVMDQGVAAEFDHPYILLSNPNSKFSSMVKETGDNMSRILFEVAKTKYESDSKTADYKDDDDK
notes: Expressed in Sf9 cells by baculovirus together with EGFP; also called Sf9::Sf-ABCC2; Sf9 expressing Sf-ABCC2
binding result [2]: binds

B2: SMALP-Sf-ABCC2-FLAG (Sf-ABCC2 extracted from silkworm pupae membranes with styrene maleic acid and affinity purified) (receptor)
chain: B1 chain
notes: also called Sf-ABCC2 in SMALP
binding result [3]: binds

B3: Bm-ABCC2 solubilized in 1% Triton X100 and affinity purified (C-terminal FLAG tag) (receptor)
chain: MNSDGRAGENSSAETRRKPHKPNILSRIFLWWMCPVLVKGNQRDTVEDDLIIPKKSFNSENQGEYLERYWLQEYEAAIKEKREPSLWTALRKAYWLGYMPGAIYLIIISVFRIIQPLVFAELLSYWSVEATITRLEASYYALALLGINFINMMCQHHNSLFVARFGLKVKVACSSLVYRKLLRMDQVALGDVSGGKLVNLLSNDVARFDYAFMFLHYLWVVPVQAAVVLYFLYISAGYAPFVGFFGVVILILPIQAGLTKLTSVVRRETAQRTDRRIKLMTEIINGIQVIKMYAWEKPFQAIVKVARNFEMIALRKSIFIRSVFLGFMLFTERSIIFITCLTFLLTGNLVTATLIYPIQQYISIIQINLTMILPLAIASLSEMLVSLERIQNFLVKDEREDVQITPKSYGDDNRLIFNNKASLGPQNEIIPKKYLATDGQLASTLTNEPVLSTDPAVCDYPIELSKVDATWSSSTDTSEMTLRNITLRIGRGKLCAIIGPVGSGKSSILQVLLKELPVCGGSLRINGRLSYACQESWLFPATVRENILFGLPYDSQKYHEVCKACSLLPDFKQFPYGDLSLVGERGVSLSGGQRARINLARAVYREADIYLLDDPLSAVDANVGRQLFDGCIKGYLRGRTCVLVTHQIHYLKAADIIVILNEGAIENVGSYDDLVNTGTEFSKLLTNQESNDNENGPEKNFLRAISKISTKSVEDPDNEKVQVEEEEKRAKGNLKFSVLYKYLSAVKSWFLVFLMVVTLVITQGCATFIDYWLSFWTNQVDEYEQSLAEGEEPSTSLDTQAGAFTLGVYLWTYGGVILILIVISHVRILTFVITTMRASSNFHDTVYKKLIITVMRFFDMNPSGRVLNRFSKDMGAMDEFLPRSLFETVQMYLTLCSILILNAIALPWTLIPTAVLLILFFVLLKWYLNAAQAVKRLEGTTKSPVLGMINSTLTGLSTIRSSNSQGRLLQMFDNAQNLHTSAFYTFVGGSTAFGLYLDALCLVYLGVILTIFLVIDFSTLIPVGSVGLAVSQSMVLTMMLQMAARFTADFLGQMTAVERVLEYTELPMEENMYDGSQLPKDWPTHGRIEFQNLFLNYSQEDPPVLKDLNFVIENGWKVGVVGRTGAGKSSMISALFRLYELQGHIRIDGIDTNIIAKTELRSKISIIPQEPILFSASVRYNLDPFDSYSDDEIWRALEQVELKEVIPALDYKVSEGGSNFSVGQRQLVCLARAVLRSNKILVMDEATANVDPQTDALIQTTIRREFASCTVITIAHRLNTIMDSDRVLVMDKGVVAEYDTPYALLSDPNSIFSSMVRETGDTMSKVLFRVAEDKHLGRNTEKDYKDDDDK
binding result [4]: binds

B4: Sf-ABCC2-Mutant (ABCC2 from a Cry1Fa-resistant Spodoptera frugiperda strain, C-terminal FLAG tag) expressed on Sf9 cells (receptor)
chain: MDKSNKNTAANGNGGQRAGEPKERVRKKPNILSRIFVWWIFPVLITGNKRDVEEDDLIVPSKKFNSERQGEYFERYWFEEVAIAEREDRDPSLWKAMRRAYWLQYMPGAIFVLLISGLRTAQPLLFSQLLSYWSVDSEMSQQDAGLYALAMLGINFITMMCTHHNNLFVMRFSMKVKIAASSLLFRKLLRMSQVSVGDVAGGKLVNLLSNDVARFDYAFMFLHYLWVVPLQVGVVLYFVYDAAGWAPYVGLFGVIILIMPLQAGLTKLTGVVRRMTAKRTDKRIKLMSEIINGIQVIKMYAWEKPFQLVVKAARAYEMSALRKSIFIRSMFLGFMLFTERSVMFLTVLTLALTGNMISATLIYPIQQYFGIITMNVTLILPMAFASFSEMLISLERIQGFLLLDERSDIQITPKVVNGAGSKLFNNSKKEGGLETGIVLPTKYSPTEANMARPMQDEPNMADYPVQLNKVNATWADLNDNKEMTLKNISSRVRKNKLCAVIGPVGSGKTSLLQLLLRELPVTSGNLSISGTVSYASQEPWLFPATVRENILFGLEYNVAKYKEVCKVCSLLPDFKQFPYGDLSLVGERGVSLSGGQRARINLARAVYREADIYLLDDPLSAVDANVGRQLFDGCIKGYLSGKTCILVTHQIHYLKAADFIVVLNEGSVENMGSYDELMKTGTEFSMLLSDQASEGSDTDKKERPAMMRGISKMSVKSDDEEGEEKVQVLEAEERQSGSLKWDVLGRYMKSVNSWCMVVMAFLVLVITQGAATTTDYWLSFWTNQVDIQTLPEGESKNPELNTQVGLLTTGQYLIVHGSVVLAIIILTQVRILSFVVMTMRASENLHNTIYEKLIVAVMRFFDTNPSGRVLNRFSKDMGAMDELLPRSMLETVQMYLSLASVLVLNAIALPWTLIPTTVLMFIFVFLLKWYINAAQAVKRLEGTTKSPVFGMINSTISGLSTIRSSNSQDRLLNSFDDAQNLHTSAFYTFLGGSTAFGLYLDTLCLIYLGIIMSIFILGDFGELIPVGSVGLAVSQSMVLTMMLQMAAKFTADFLGQMTAVERVLEYTKLPTEENMETGPTTPPKDWPSAGEVTFSNVYLKYSPDDPPVLKDLNFAIKSGWKVGVVGRTGAGKSSLISALFRLSDITGSIKIDGLDTQGIAKKLLRSKISIIPQEPVLFSASLRYNLDPFDNYNDEDIWRALEQVELKESIPALDYKVSEGGTNFSMGQRQLVCLARAILRSNKILIMDEATANVDPQTDALIQKTIRKQFATCTVLTIAHRLNTIMDSDRVLVMDQGVAAEFDHPYILLSNPNSKFSSMVKETGDNMSRILFEVAKTKYESDSKTADYKDDDDK
notes: Expressed in Sf9 cells by baculovirus
binding result [5]: no binding
